Source: patent publication US9567641B2, “Combination therapy for the treatment of cancer using an anti-C-met antibody” (SAMSUNG ELECTRONICS CO., LTD., priority 2013, dated 2017)

Key:
Assay type in all cases: cell-based
[1] = test system: L3-1Y/IgG2 antibody resistance acquired EBC1 lung cancer cells; assay: Cell viability, CellTiter Glo, resistance-acquired cell line; conditions: L3-1Y/IgG2 antibody alone
Protocol: (§1) To verify whether or not the resistance acquired by repetitive administration of anti-c-Met antibody can be overcome by BCL2L1 inhibition, L3-1Y/IgG2 antibody resistance acquired EBC1 cells, where the resistance against L3-1Y/IgG2 antibody is acquired by treating EBC1 lung cancer cells (JCRB, JCRB0820) with the L3-1Y/IgG2 antibody for at least 3 months, were used. The L3-1Y/IgG2 antibody resistance acquired EBC1 lung cancer cells were prepared referring to Example 4.3.
5000 cells of the L3-1Y/IgG2 antibody resistance acquired EBC1 cells were seeded onto a 96-well plate and 24 hours after, the plate was treated with a BCL2 family inhibitor, ABT-263 (Abbott Laboratories) and 72 hours later after the antibody treatment, a change in the number of cells was measured using CellTiter Glo assay. ABT-263 was treated at a fixed concentration of 0.5 uM, and the L3-1Y/IgG2 antibody was treated by ⅕ dilution each time starting from 2 ug/ml.

[2] = test system: EBC1 lung cancer cell line; assay: Cell viability, CellTiter Blue, combination with L3-1Y/IgG2 antibody; conditions: for concentration at which the L3-1Y/IgG2 antibody showed the maximized efficacy: 5 days
Protocol: The efficacy of the combination administration of RAF1 siRNA and L3-1Y/IgG2 antibody was examined in lung cancer cell line on which the anti-c-Met antibody has an effect. For this, EBC1 (JCRB, JCRB0820) cells were used. As a control group, All Negative control siRNA (Qiagen, cat. no. 1027281) was used, and as a target siRNA, a mixture of two kinds of siRNAs (see Table 7) that had effects during the screening was used. Transfection was carried out by the same procedures as Example 3.1 and after 24 hours, the cultured cells were treated with L3-1Y/IgG2 antibody at 0 ug/ml, 0.016 ug/ml, 0.08 ug/ml, 0.4 ug/ml, or 2 ug/ml. After 5 days of treatment, for cell number counting, 20 ul of a diluting solution of CellTiter Blue (Promega, G8081) and HBSS at 1:1 was added to each well, which was incubated at 37° C. for 4 hours. Then, the number of cells was counted via fluorescence signals (560/590 nm), which were measured using Envision 2104 Multi-label Reader (Perkin Elmer).

[3] = test system: MKN45 gastric cancer cell line with acquired resistance against L3-1Y/IgG2 antibody; assay: Cell viability, CellTiter Glo, resistance-acquired cell line
Protocol: To see whether the treatment RAF1 siRNA can overcome resistance acquired due to the repetitive treatment of an antibody, tests were carried out using MKN45 gastric cancer cell line which had been treated by L3-1Y/IgG2 antibody for 3 months or longer and acquired resistance against it. The resistance-acquired MKN45 gastric cancer cell line was prepared as follows: MKN45 cells (JCRB, JCRB0254) were treated with L3-1Y/IgG2 antibody in amounts being increased over 3 months or longer. The amount of L3-1Y/IgG2 antibody to be treated started from its initial treatment concentration of 1 ug/ml and was increased up to 10 ug/ml until resistance occurred. To confirm the acquisition of L3-1Y/IgG2 antibody resistance, the resistance-acquired clones were treated or not treated with L3-1Y/IgG2 antibody and then incubated, followed by CTG assays.
As a control group, All Negative control siRNA (Qiagen, cat. no. 1027281) was used, and as a target siRNA, a mixture of two kinds of siRNAs (see Table 7) that had effects during the screening was used. […]
(§2) 5000 cells of MKN45 cells which have acquired resistance against L3-1Y/IgG2 antibody were seeded onto a 96-well plate, and 24 hours after, the plate was treated with L3-1Y/IgG2 antibody and an ITGB3 inhibitor, cilengitide (Merck KGaA, EMD 121974). 72 hours later after the treatment, a change in the number of cells was measured using CellTiter Glo assay. The MKN45 cells which have acquired resistance against L3-1Y/IgG2 antibody were prepared referring to Example 4.3. Cilengitide was treated at a fixed concentration of 10 uM, and the L3-1Y/IgG2 antibody was treated by ⅕ dilution each time starting from 2 ug/ml. For comparison, the same test was conducted using L3-1Y/IgG2 antibody alone.
as §2, with “AKT” for “ITGB3”, “MK-2206” for “cilengitide”, “& Co Inc).” for “KGaA, EMD 121974).”, “MK-2206” for “Cilengitide”, “5” for “10”
as §1, with “MKN45” for “EBC1”, “MKN45 gastric” for “EBC1 lung”, “JCRB0254)” for “JCRB0820)”, “4.3. […]” for “4.3.”

B1: L3-1Y/IgG2: anti-c-Met antibody: huAbF46-H4-A1 heavy chain variable region, human IgG2 hinge and constant region, kappa light chain with H36Y (antibody)
heavy: EVQLVESGGGLVQPGGSLRLSCAASGFTFTDYYMSWVRQAPGKGLEWLGFIRNKANGYTTEYSASVKGRFTISRDNSKNTLYLQMNSLRAEDTAVYYCARDNWFAYWGQGTLVTVSSASTKGPSVFPLAPCSRSTSESTAALGCLVKDYFPEPVTVSWNSGALTSGVHTFPAVLQSSGLYSLSSVVTVPSSNFGTQTYTCNVDHKPSNTKVDKTVERKCCVECPPCPAPPVAGPSVFLFPPKPKDTLMISRTPEVTCVVVDVSHEDPEVQFNWYVDGVEVHNAKTKPREEQFNSTFRVVSVLTVVHQDWLNGKEYKCKVSNKGLPAPIEKTISKTKGQPREPQVYTLPPSREEMTKNQVSLTCLVKGFYPSDIAVEWESNGQPENNYKTTPPMLDSDGSFFLYSKLTVDKSRWQQGNVFSCSVMHEALHNHYTQKSLSLSPGK
light: DIQMTQSPSSLSASVGDRVTITCKSSQSLLASGNQNNYLAWYQQKPGKAPKMLIIWASTRVSGVPSRFSGSGSGTDFTLTISSLQPEDFATYYCQQSYSRPYTFGQGTKVEIKRTVAAPSVFIFPPSDEQLKSGTASVVCLLNNFYPREAKVQWKVDNALQSGNSQESVTEQDSKDSTYSLSSTLTLSKADYEKHKVYACEVTHQGLSSPVTKSFNRGEC
- cancer cell growth inhibitory effect (cell viability) [1]: did not occur
- concentration at which the L3-1Y/IgG2 antibody showed the maximized efficacy ([2]; co-treated with RAF1 siRNA): 0.016 µg/mL
- decrease of the concentration of maximized efficacy by RAF1 siRNA co-treatment ([2]; with versus without RAF1 siRNA): ⅕
- concentration at which the L3-1Y/IgG2 antibody showed the maximized efficacy ([2]; without RAF1 siRNA (negative control siRNA)): 0.08 µg/mL
- growth inhibitory effect (cell viability) ([3]; L3-1Y/IgG2 antibody alone (1/5 dilutions from 2 ug/ml), 72 h): did not occur
- cancer cell growth inhibitory efficacy (cell viability) ([3]; L3-1Y/IgG2 antibody alone (negative control siRNA)): did not occur
